Data as given in US20150266963A1 (ARGEN X B V, published 2015).

Tests used:
[1] = target: T1, human CD70 expressed on the surface of cells (human, UniProt P32970 1-193); test: FACS MFI at 37 C, PANC-1 cells; reference SGN70
T1 construct: whole, on cells; also called cell surface expressed CD70; CD70 on cells
T1 sequence (looked up): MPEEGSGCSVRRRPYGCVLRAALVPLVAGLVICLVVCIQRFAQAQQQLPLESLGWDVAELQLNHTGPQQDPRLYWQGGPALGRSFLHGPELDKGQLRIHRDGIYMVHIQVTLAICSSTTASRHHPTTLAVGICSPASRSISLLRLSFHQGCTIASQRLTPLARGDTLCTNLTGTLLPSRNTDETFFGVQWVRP
Procedure: (§1) Several cancer cell lines were tested by FACS analysis for binding of ARGX-110 and SGN70 (described in US2010/0129362) at saturating mAb concentrations (at least 2 μg/ml). This was either done at 4° C. (1 hour incubation of cells with mAbs) or at 37° C. (15 minutes incubation of cells with mAbs). Binding was detected using anti-hIgG1-Fc-FITC (AF006, Binding Site) or anti-hIgG1-Fc-PE antibody (eBioscience, 12-4998). Fluorescence was measured using a flow cytometer.

[2] = target: T1, human CD70 expressed on the surface of …; test: FACS MFI at 37 C, MHHPREB1 cells; reference SGN70
Procedure: as §1

[3] = target: T2, cynomolgus monkey CD70 on HSC-F cells (cynomolgus monkey, UniProt A0A2K5WTU9 1-190); test: flow cytometry on cynomolgus HSC-F cells, goat anti human IgG1 FITC [panel cynomolgus monkey]
T2 construct: whole, on cells; also called cynomolgus CD70
T2 sequence: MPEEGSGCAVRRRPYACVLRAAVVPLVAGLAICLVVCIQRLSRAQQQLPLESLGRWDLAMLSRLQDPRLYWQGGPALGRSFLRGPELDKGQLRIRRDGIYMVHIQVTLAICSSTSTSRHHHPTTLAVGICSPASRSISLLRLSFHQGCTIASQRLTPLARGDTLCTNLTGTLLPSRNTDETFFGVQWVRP

[4] = target: T3, rhesus recombinant CD70 (FLAG-TNC-rhesus CD70) (rhesus); test: blocking ELISA; rhesus Flag-TNC-CD70; competitor CD27-Fc
T3 construct: also called rhesus Flag-TNC-CD70

[5] = target: T1, human CD70 expressed on the surface of …; test: FACS MFI at 37 C, Granta 519 cells; reference SGN70
Procedure: as §1

[6] = target: T1, human CD70 expressed on the surface of …; test: FACS MFI at 37 C, L428 cells; reference SGN70
Procedure: as §1

[7] = target: T4, rhesus CD70 on LCL8664 cells (rhesus, UniProt F7GPA5 123-316); test: flow cytometry on rhesus LCL8664 cells, goat anti human IgG1 FITC [panel Rhesus monkey]
T4 construct: whole, on cells
T4 sequence: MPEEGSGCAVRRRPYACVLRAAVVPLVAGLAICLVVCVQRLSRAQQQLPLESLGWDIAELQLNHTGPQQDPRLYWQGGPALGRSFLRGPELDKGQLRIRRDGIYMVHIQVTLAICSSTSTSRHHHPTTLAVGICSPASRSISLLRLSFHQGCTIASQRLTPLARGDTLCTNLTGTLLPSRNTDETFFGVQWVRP

[8] = target: T5, human-mouse CD70 chimera chim-2.4 (Flag-TNC-CD70); test: ELISA; chimera captured by anti-Flag mAb; anti-human-Fc-HRP
T5 construct: also called chimera 2.4
T5 chain: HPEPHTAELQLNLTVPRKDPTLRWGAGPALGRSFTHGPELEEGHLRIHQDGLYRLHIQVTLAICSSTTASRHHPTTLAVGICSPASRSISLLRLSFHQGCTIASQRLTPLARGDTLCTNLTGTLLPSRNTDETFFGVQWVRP
Procedure: (§2) A Maxisorb (Nunc) microtiter plate was coated with 3.5 μg/ml mouse M2 anti-Flag mAb (Sigma Aldrich, F3165) and the different chimeras were captured. A dilution series of the CD70 mAbs to be tested was applied starting at a concentration of 10 μg/ml and making 3-fold dilutions. After 2 hours, binding was detected using anti-human-Fc-HRP at a 16000-fold dilution. Staining was done with ABTS and OD at 405 nm was measured. As a positive control, CD27-Fc was applied which is able to bind to both human and mouse CD70 with good affinity as well as to the chimeric human-mouse CD70 variants.

[9] = target: T6, human-mouse CD70 chimera chim-2.3 (Flag-TNC-CD70); test: as above
T6 construct: also called chimera 2.3
T6 chain: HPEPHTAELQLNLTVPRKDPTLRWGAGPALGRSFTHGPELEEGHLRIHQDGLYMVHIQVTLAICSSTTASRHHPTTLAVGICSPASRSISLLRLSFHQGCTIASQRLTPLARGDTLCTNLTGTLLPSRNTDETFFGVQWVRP
Procedure: as §2

[10] = target: T7, human-mouse CD70 chimera chim-2.2 (Flag-TNC-CD70); test: as above
T7 construct: also called chimera 2.2; not shown: N-terminal Flag tag, TNC trimerisation domain and any linkers of the Flag-TNC-CD70 construct
T7 chain: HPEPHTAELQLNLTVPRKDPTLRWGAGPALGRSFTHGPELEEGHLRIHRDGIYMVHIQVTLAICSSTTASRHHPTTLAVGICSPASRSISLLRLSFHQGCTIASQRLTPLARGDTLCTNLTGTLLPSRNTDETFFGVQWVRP
Procedure: as §2

[11] = target: T1, human CD70 expressed on the surface of …; test: FACS MFI at 37 C, 786-O cells; reference SGN70
Procedure: as §1

[12] = target: T1, human CD70 expressed on the surface of …; test: FACS MFI at 37 C, A549 cells; reference SGN70
Procedure: as §1

[13] = target: T1, human CD70 expressed on the surface of …; test: flow cytometry on U266 cells, 1 h at 4 °C, anti-hIgG1-Fc-FITC or anti-hIgG-Fc-PE [panel U266]
Procedure: […] This was either done at 4° C. (1 hour incubation of cells with mAbs) or at 37° C. (15 minutes incubation of cells with mAbs). Binding was detected using anti-hIgG1-Fc-FITC (AF006, Binding Site) or anti-hIgG1-Fc-PE antibody (eBioscience, 12-4998). Fluorescence was measured using a flow cytometer.

B1: ARGX-110 (non-fucosylated 41D12 human IgG1) (antibody, V domains shown)
VH: EVQLVESGGGLVQPGGSLRLSCAASGFTFSVYYMNWVRQAPGKGLEWVSDINNEGGTTYYADSVKGRFTISRDNSKNSLYLQMNSLRAEDTAVYYCARDAGYSNHVPIFDSWGQGTLVTVSS
VL: QAVVTQEPSLTVSPGGTVTLTCGLKSGSVTSDNFPTWYQQTPGQAPRLLIYNTNTRHSGVPDRFSGSILGNKAALTITGAQADDEAEYFCALFISNPSVEFGGGTQLTVLG
notes: also called 41D12 (ARGX-110)
For B1, the “Signal in FACS of ARGX-110/signal in FACS of SGN70” value (from here on “Signal in FACS of ARGX-110/signal”) [1] was 2.9 ratio, the “Signal in FACS of ARGX-110/signal” value [2] was 1.2 ratio and the “EC50 (read off the curve)” value [3] was ~0.08 µg/mL. For the same binder, the IC50 [4] was 0.075 µg/mL, the “Signal in FACS of ARGX-110/signal” value [5] was 0.9 ratio and the “Signal in FACS of ARGX-110/signal” value [6] was 1.4 ratio. For the same binder, the “EC50 (read off the curve)” value [7] was ~0.2 µg/mL, the EC50 [8] was 0.014 µg/mL and the EC50 [9] was 0.015 µg/mL. For the same binder, the EC50 [10] was 0.016 µg/mL, the “Signal in FACS of ARGX-110/signal” value [11] was 2.1 ratio and the “Signal in FACS of ARGX-110/signal” value [12] was 3.8 ratio. The “EC50 (read off the curve)” value [13] was ~0.1 µg/mL.
